Numbering of substitutions follows the chain as printed.
T1: human GDF15 recombinant protein (ACRO, GD5-H5149) (human, UniProt Q99988 197-308)
T1 sequence (looked up): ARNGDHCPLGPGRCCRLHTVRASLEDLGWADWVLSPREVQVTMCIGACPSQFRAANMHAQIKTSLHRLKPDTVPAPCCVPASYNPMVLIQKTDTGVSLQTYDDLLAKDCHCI

T2: mouse GDF15 recombinant protein (Kactus, GDF-MM215) (mouse, UniProt Q9Z0J7 189-303, limits assumed)
T2 construct: also called mGDF-15.hFc; murine GDF15; not shown: human Fc (hFc)
T2 sequence (looked up): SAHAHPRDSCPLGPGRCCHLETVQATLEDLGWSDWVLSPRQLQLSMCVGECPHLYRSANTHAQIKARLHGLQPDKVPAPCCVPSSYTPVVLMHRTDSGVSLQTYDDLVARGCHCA

T3: cynomolgus monkey GDF15 recombinant protein (Kactus, GDF-CM215) (cynomolgus monkey, UniProt G7PWZ3 197-308, limits assumed)
T3 construct: also called cynoGDF-15.hFc; cynoGDF15; not shown: human Fc (hFc)
T3 sequence (looked up): T1 sequence (looked up) with H6R, R21H, A54E, T63M, S64N, I112V

T4: GDF15 protein (R&D, 8146-GD) (UniProt Q99988 197-308)
T4 construct: analyte of the SPR assay
T4 sequence (looked up): T1 sequence (looked up)

B1: G2-CH6 (antibody, human IgG1, kappa, V domains shown)
VH: EVQLRQSGPELVKPGTSMKISCKASAYSFTDYNMNWVKQSHGKNLEWIGLINPYNGGTRYNQNFKGKATITVDRSSTTAYMELLSLTSEDSAIYYCAREVRLGNALDYWGQGTSVTVSS
VL: DIQMTQSPASLSVSVGETVTITCRPSESIYSNLAWYQQKQGKSPQLLVYAATNLADGVPSRFSGSGSGTQYSLKINSLQSEDFGTYYCQHFWGIPWTFGGGTKLEIKR
notes: chimeric: murine variable regions on human IgG1 constant region mutant (LALAGA, -K)
B2: G2-CH13 (antibody, human IgG1, kappa, V domains shown)
VH: EVLLQQSGPELVKPGASVKITCKASGYTFTDYNMNWVKQSHGKSLEWIGDINPYNGGIIYNQKFRGKATLTIDKSSSTAYMELRSLTSEDTAVYYCAREVRRGSFFDYWGQGTTLTVSS
VL: DIQMTQSPASLSVSVGETVTITCRASENIYSNLAWYQQKQGKSPQLLVYAATDLADGVPSRFSGSGSGTQYSLKINSLQSEDFGNYHCQLFWGTPTFGGGTKLEIKR
notes: as for B1
B3: G2-CH1 (antibody, human IgG1, kappa, V domains shown)
VH: QVTLKESGPGILQPSQTLSLTCSFSGFSLSTYGIGVGWIRQPSGKGLEWLAHIWWNNNKYFNTALKSRLTISKDTSNNQVFLKIASVDTADSATYYCARMGYDIMDYWGQGTSVTVSS
VL: DIVMTQSHKFMSTSVGDRVSITCKASQDVNTAVAWYQQKPGQSPKFLIYSSSYRYTGVPDRFTGSGSGTDFTFTISSVQAEDLAVYYCQQHYSTPWTFGGGTKLEIKR
notes: as for B1
B4: G2-CH5 (antibody, human IgG1, kappa, V domains shown)
VH: EVLLQQSGPELVKPGASVKIACKASGYTLTDYNLNWVKQSHGKSLEWIGDLNPYNGGIIYNQKFKGKATLTVDKSSSTAYMELRSLTSEDIAVYYCAREGRGGAWFDSWGQGTLVTVSA
VL: DIQMTQSSSSFSVSLGDRVTITCKASEDIYHRLAWYQQKPGNAPRLLISGATSLETGIPSRFSGSGSGKDYALSITSLQTEDVGTYYCQQYWSPPFTFGSGTKLEIKR
notes: as for B1
B5: G2-CH14 (antibody, human IgG1, kappa, V domains shown)
VH: QVTLKESGPGILQPSQTLSLTCSFSGFSLSTSGMGVSWIRQPSGKGLEWLALIYWDDDKRYNPSLKSRLTISKDASSNQVFLKITSVDTADTATYYCIQSPWDWFAYWGQGTLVTVSA
VL: EIVLTQSPALMAASPGEKVTITCSVSSSISSSNLHWYQQKSETSPKPWIYGTSNLASGVPVRFSGSGSGTSYSLTISSMEAEDAATYYCQQWSSYPLTFGAGTKLELKR
notes: as for B1
B6: G2-CH12 (antibody, human IgG1, kappa, V domains shown)
VH: QVQLQQSGAELVKPGASVKLSCKASGYTFTNYDINWVRQRPEQGLEWIGWIFPGDGSTKYNEKFKDKATLTTDTSSSTAYMQLIRLTSEDSAVYFCARILYWGQGTTLTVSS
VL: DNKMTQSPSSMYASLGERVTITCKASQDINSYLSWFQQKPGKSPKTLIYRANKLVDGVPSRFSGSGSGQDYSLTISSLEYEDMGIYHCLQYDEFPYTFGGGTKLEIKR
notes: as for B1
B7: G2-CH16 (antibody, human IgG1, kappa, V domains shown)
VH: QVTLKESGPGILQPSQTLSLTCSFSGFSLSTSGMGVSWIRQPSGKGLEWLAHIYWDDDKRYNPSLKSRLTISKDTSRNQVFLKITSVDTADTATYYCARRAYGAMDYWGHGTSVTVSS
VL: DIVMTQSQKFMSTSVGDRVSVTCKASQNVGTNIAWFQQKPGQSPEALIYSASYRYSGVPDRFTGSGSGTDFTLTISNVQSEDLAEYFCQQYNTYPHTFGGGTKLEIRR
notes: as for B1
B8: G2-CH2 (antibody, human IgG1, kappa, V domains shown)
VH: QVTLKESGPGILQPSQTLSLTCSFSGFSLTISGMGVSWIRQPSGKGLEWLAHIYWDDDKRYNPSLKSRLTISKDTSSNQVFLEITSVDTADTATYYCVRAGWDFFDYWGQGTTLTVSS
VL: B7 VL with I33V, F36Y, E45K, A46G, T93S, H96W, R107K
notes: as for B1
B9: G2-CH3 (antibody, human IgG1, kappa, V domains shown)
VH: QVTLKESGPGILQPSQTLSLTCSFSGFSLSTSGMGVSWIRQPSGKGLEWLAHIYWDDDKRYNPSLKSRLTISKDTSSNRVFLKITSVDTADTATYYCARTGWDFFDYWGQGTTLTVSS
VL: B7 VL with I33V, F36Y, E45K, A46G, S76N, T93S, H96Y, R107K
notes: as for B1
B10: G2-H5-H2.2L3-hIgG1(LALAGA,-K) (antibody, V domains shown)
VH: EVQLVQSGAEVKKPGASVKVSCKASGYTFTDYNLNWVRQATGQGLEWMGDLNPYNQGIIYNQKFKGRVTLTVDKSISTAYMELSSLRSEDTAVYYCAREGRGGAWFDSWGQGTLVTVSS
VL: DIQMTQSPSSLSASVGDRVTITCKASEDIYHRLAWYQQKPGKAPKLLISGATSLETGVPSRFSGSGSGTDYTFTISSLQPEDIATYYCQQYWSPPFTFGGGTKVEIKR
notes: humanized from G2-CH5-HP2
B11: G2-H5-H2.2L4-hIgG1(LALAGA,-K) (antibody, V domains shown)
VH: B10 VH
VL: B10 VL with V58I
notes: humanized from G2-CH5-HP2
B12: G2-H5-H3.2L4-hIgG1(LALAGA,-K) (antibody, V domains shown)
VH: B10 VH with M48I, V68A
VL: B10 VL with V58I
notes: humanized from G2-CH5-HP2
B13: G2-H5-H4.2L4-hIgG1(LALAGA,-K) (antibody, V domains shown)
VH: B10 VH with F29L, M48I, V68A, D73N
VL: B10 VL with V58I
notes: humanized from G2-CH5-HP2
B14: G2-H5-H3.2L3-hIgG1(LALAGA,-K) (antibody, V domains shown)
VH: B10 VH with M48I, V68A
VL: B10 VL
notes: humanized from G2-CH5-HP2
B15: G2-H5-H3.2L2-hIgG1(LALAGA,-K) (antibody, V domains shown)
VH: B10 VH with M48I, V68A
VL: B10 VL with S49Y
notes: humanized from G2-CH5-HP2
B16: G2-H5-H3.2L1-hIgG1(LALAGA,-K) (antibody, V domains shown)
VH: B10 VH with M48I, V68A
VL: B10 VL with S49Y, Y71F
notes: humanized from G2-CH5-HP2
B17: G2-H5-H4.2L1-hIgG1(LALAGA,-K) (antibody, V domains shown)
VH: B10 VH with F29L, M48I, V68A, D73N
VL: B10 VL with S49Y, Y71F
notes: humanized from G2-CH5-HP2
B18: G2-H5-H4.2L3-hIgG1(LALAGA,-K) (antibody, V domains shown)
VH: B10 VH with F29L, M48I, V68A, D73N
VL: B10 VL
notes: humanized from G2-CH5-HP2
B19: G2-H5-H4.2L2-hIgG1(LALAGA,-K) (antibody, V domains shown)
VH: B10 VH with F29L, M48I, V68A, D73N
VL: B10 VL with S49Y
notes: humanized from G2-CH5-HP2

Molecular target: T1, human GDF15 recombinant protein (ACRO, …)
Test: cell-based or functional assay

| Binder | IC50, luciferase reporter gene cell strain (mGFRAL/RET HEK293) with hGDF15 [pM] |
| --- | --- |
| B1 | 4390 |
| B2 | 11700 |
| B3 | 3750 |
| B4 | 3450 |
| B5 | 200 |
| B6 | 6800 |
| B7 | 450 |
| B8 | 3240 |
| B9 | 3550 |

Molecular target: T1, human GDF15 recombinant protein (ACRO, …)
Test: cell-based or functional assay
Remark: another data set of the same source

| Binder | IC50, reporter gene cell strain (GFRAL/RET) [pM] |
| --- | --- |
| B10 | 48 |
| B11 | 48 |
| B12 | 39 |
| B13 | 81 |
| B14 | 64 |
| B15 | 41 |
| B16 | 68 |
| B17 | 87 |
| B18 | 49 |
| B19 | 59 |

Molecular target: T1, human GDF15 recombinant protein (ACRO, …)
Test: ELISA, coated hGDF-15.His

| Binder | EC50 [pM] |
| --- | --- |
| B1 | 4.34 |
| B2 | 3.82 |
| B3 | 3.87 |
| B4 | 3.94 |
| B5 | 6.63 |
| B6 | 10.6 |
| B7 | 4.76 |
| B8 | 6.27 |
| B9 | 4.53 |

Molecular target: T2, mouse GDF15 recombinant protein …
Test: ELISA, coated mGDF-15.hFc

| Binder | EC50 [pM] |
| --- | --- |
| B1 | 110 |
| B2 | 220 |
| B3 | 170 |
| B4 | 120 |
| B5 | 760 |
| B6 | 5640 |
| B7 | 320 |
| B8 | 260 |
| B9 | 56500 |

Molecular target: T3, cynomolgus monkey GDF15 recombinant …
Test: ELISA, coated cynoGDF-15.hFc

| Binder | EC50 [pM] |
| --- | --- |
| B1 | 89.2 |
| B2 | 65.4 |
| B3 | 86 |
| B4 | 92.9 |
| B5 | 72.1 |
| B6 | 211 |
| B7 | 90.9 |
| B8 | 98 |
| B9 | 102 |

Molecular target: T4, GDF15 protein (R&D, 8146-GD)
Test: SPR Biacore T200, antibody captured by anti-hFc on CM5, GDF15 as analyte, 1:1 model

| Binder | Kd [pM] | koff [s⁻¹] | kon [M⁻¹ s⁻¹] |
| --- | --- | --- | --- |
| B10 | 33.6 | 0.000284 | 8.46e+06 |
| B11 | 21 | 0.000231 | 1.1e+07 |
| B12 | 22.1 | 0.000175 | 7.9e+06 |
| B13 | 34.9 | 0.00026 | 7.44e+06 |
| B14 | 33.9 | 0.000359 | 1.06e+07 |
| B15 | 32.7 | 0.000265 | 8.1e+06 |
| B16 | 24.5 | 0.000173 | 7.03e+06 |
| B17 | 44.2 | 0.000278 | 6.28e+06 |
| B18 | 25.1 | 0.000193 | 7.68e+06 |
| B19 | 27.3 | 0.000239 | 8.75e+06 |
